T1: human CD22-ECD-His protein (human, UniProt P20273 20-687)
T1 construct: Made in house in HEK293E; also called hCD22-ECD-His; recombinant human CD22-ECD His protein; not shown: His tag
T1 sequence: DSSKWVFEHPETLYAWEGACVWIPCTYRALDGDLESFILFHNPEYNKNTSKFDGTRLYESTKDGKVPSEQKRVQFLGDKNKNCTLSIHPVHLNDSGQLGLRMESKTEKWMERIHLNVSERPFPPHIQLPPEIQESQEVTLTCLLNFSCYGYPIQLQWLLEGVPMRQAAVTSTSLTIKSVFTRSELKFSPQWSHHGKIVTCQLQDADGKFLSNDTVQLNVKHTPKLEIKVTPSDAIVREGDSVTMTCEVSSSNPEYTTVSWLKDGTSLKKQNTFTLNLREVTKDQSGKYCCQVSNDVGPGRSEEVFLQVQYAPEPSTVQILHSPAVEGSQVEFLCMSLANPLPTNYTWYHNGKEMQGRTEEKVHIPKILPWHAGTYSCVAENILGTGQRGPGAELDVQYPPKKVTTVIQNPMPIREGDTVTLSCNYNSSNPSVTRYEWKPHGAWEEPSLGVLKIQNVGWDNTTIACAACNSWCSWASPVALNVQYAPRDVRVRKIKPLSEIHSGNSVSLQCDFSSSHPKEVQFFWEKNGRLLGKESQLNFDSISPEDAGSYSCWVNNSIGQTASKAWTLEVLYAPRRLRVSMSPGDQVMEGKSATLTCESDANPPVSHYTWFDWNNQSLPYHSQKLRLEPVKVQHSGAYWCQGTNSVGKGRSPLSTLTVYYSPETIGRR

T2: murine CD22 protein (ACROBiosystems, SI2-M52Ha) (murine, UniProt P35329 22-708)
T2 construct: extracellular domain; also called murine CD22-ECD; murine CD22-ECD-His
T2 sequence (looked up): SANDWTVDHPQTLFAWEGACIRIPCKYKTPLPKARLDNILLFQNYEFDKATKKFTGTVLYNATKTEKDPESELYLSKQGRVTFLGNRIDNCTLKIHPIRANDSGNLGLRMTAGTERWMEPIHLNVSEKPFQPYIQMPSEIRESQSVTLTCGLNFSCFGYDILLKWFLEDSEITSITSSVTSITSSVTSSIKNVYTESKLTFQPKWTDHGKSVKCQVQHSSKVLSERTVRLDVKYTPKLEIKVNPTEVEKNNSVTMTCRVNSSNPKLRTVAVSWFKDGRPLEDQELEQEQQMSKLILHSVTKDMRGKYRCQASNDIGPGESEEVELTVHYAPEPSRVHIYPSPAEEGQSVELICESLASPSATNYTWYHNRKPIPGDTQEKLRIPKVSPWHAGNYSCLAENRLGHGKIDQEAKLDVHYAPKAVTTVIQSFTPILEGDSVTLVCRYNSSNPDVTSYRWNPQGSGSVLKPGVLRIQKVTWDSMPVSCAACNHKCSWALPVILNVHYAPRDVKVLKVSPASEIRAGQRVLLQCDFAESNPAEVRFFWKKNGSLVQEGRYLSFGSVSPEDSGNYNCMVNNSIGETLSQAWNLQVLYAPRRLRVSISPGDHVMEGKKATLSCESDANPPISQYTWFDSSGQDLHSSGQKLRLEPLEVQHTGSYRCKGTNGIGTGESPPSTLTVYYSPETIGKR

T3: human CD22 domain1-4-His (human, UniProt P20273 20-425)
T3 construct: also called hCD22 domain1-4-His; not shown: His tag
T3 sequence: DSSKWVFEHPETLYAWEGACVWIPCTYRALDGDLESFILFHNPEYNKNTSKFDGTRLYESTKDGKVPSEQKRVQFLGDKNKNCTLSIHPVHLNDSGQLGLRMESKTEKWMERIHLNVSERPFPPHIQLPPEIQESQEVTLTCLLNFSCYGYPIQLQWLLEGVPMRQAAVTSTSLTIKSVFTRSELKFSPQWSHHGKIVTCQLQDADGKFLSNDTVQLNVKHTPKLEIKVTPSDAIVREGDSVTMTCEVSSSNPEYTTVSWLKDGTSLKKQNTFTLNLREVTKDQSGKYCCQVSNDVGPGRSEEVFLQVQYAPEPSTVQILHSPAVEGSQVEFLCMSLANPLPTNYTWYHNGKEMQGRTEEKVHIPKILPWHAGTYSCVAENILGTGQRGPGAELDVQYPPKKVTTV

T4: human CD22 domain5-7-His (human, UniProt P20273 414-687)
T4 construct: also called hCD22 domain5-7-His; not shown: His tag
T4 sequence: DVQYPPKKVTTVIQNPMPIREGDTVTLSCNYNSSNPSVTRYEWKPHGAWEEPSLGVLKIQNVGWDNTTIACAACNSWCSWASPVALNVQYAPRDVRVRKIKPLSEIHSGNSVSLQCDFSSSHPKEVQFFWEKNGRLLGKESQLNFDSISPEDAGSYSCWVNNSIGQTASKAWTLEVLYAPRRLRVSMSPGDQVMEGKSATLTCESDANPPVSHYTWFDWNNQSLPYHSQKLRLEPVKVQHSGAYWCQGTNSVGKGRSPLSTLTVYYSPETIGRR


Tests used:
[1] = target: T1, human CD22-ECD-His protein; experiment: ELISA, Ab 100.00 nM
Description: (§1) In order to detect the binding activity of CD22 human-murine chimeric antibodies to CD22 protein, the purified human CD22-ECD-His protein obtained in Example 2 was diluted with PBS to a final concentration of 2 μg/mL, and then added to 96-well ELISA plate at 100 μl/well. The plate was sealed with plastic film and incubated overnight at 4° C., the plate was washed 2 times with PBS the next day, and then a blocking solution [PBS+2% (w/w) BSA] was added for blocking at room temperature for 2 hours. […] After incubation at 37° C. for 2 hours, the plate was washed 3 times with PBS. HRP (horseradish peroxidase)-labeled secondary antibody (purchased from Sigma, catalog number: A0170) was added, and incubated at 37° C. for 2 hours, and the plate was washed 5 times with PBS. TMB substrate was added at 50 μl/well, and incubated at room temperature for 30 minutes, then a stop solution (1.0 N HCl) was added at 50 μl/well.

[2] = target: T1, human CD22-ECD-His protein; experiment: ELISA, human CD22-ECD-His coated
Description: as §1

[3] = target: T1, human CD22-ECD-His protein; experiment: ELISA, Ab 0.01 nM
Description: as §1

[4] = target: T1, human CD22-ECD-His protein; experiment: ELISA, Ab 10.00 nM
Description: as §1

[5] = target: T2, murine CD22 protein (ACROBiosystems, …); experiment: ELISA, murine CD22-ECD-His coated
Description: as §1
In order to detect the species cross-binding activity of the chimeric antibodies, an ELISA plate was coated with commercial murine CD22 protein (ACROBiosystems, catalog number: SI2-M52Ha) and monkey CD22 protein (ACROBiosystems, catalog number: SI2-R52Ha), respectively, and the ELISA detection was performed according to the method in Example 5.1.

[6] = target: T1, human CD22-ECD-His protein; experiment: ELISA, Ab 0.00001 nM
Description: as §1

human CD22 domain1-4-His = target: T3, human CD22 domain1-4-His; experiment: ELISA, human CD22 domain1-4-His coated
[7] = target: T1, human CD22-ECD-His protein; experiment: ELISA, Ab 0.10 nM
Description: as §1

[8] = target: T1, human CD22-ECD-His protein; experiment: ELISA, Ab 0.0001 nM
Description: as §1

human CD22 domain5-7-His = target: T4, human CD22 domain5-7-His; experiment: ELISA, human CD22 domain5-7-His coated
[9] = target: T1, human CD22-ECD-His protein; experiment: ELISA, Ab 0.001 nM
Description: as §1

OD450 [1] [OD450]	EC50 (read off the curve) [2] [nM]	OD450 [3] [OD450]	OD450 [4] [OD450]	binding result [5]	OD450 [6] [OD450]	EC50 (read off the curve) (human CD22 domain1-4-His) [nM]	OD450 [7] [OD450]	OD450 [8] [OD450]	binding result (human CD22 domain5-7-His)	OD450 [9] [OD450]	binding result (human CD22 domain1-4-His)	EC50 (read off the curve) (human CD22 domain5-7-His) [nM]	Binder
3.14	~0.04	1.95	2.68	no binding (tested: 100 nM)	0.09	~0.04	2.58	0.19	no binding (tested: 100 nM)	0.68			F2.42.9 (antibody, human IgG1, lambda, V domains shown, Human-murine chimeric IgG1, lambda) VH: QVTLKESGPGILQPSQTLSLTCSFSGFSLSTFDRGVGWIRQPSGKGLEWLAHIWWNDKKFYNPVLKSRLTISKDTSKNQVFLTIANVDSADTATYSCARIVWDKYYFDYWGQGIPLTVSS VL: QLVLTQSSSASFSLGASAKLTCTLSSQHSAYTIEWYQQQPLKPPKFVMDLKKDGSHSTGDGIPARFSGSSSGADRYLTISNIQPEDEAIYICGVGDTIKEQYVFGGGTKVTVLG
3.28	~0.04	2.1	2.6	no binding (tested: 100 nM)	0.1		2.55	0.2		0.64	no binding (tested: 100 nM)	~0.05	F2.151.13 (antibody, human IgG1, lambda, V domains shown, Human-murine chimeric IgG1, lambda) VH: QVHLQQPGTELMKPGASVKLSCKATGYTFRDYWLEWVKQRPGHGLEWIGEILPGSGNAYYNEKFKGKATFTADTSSNTAYMQLSSLTTEDSAIYYCARVYSNWYFDAWGKGTTVTVSS VL: QAVVTQESALTTSPGETVTLTCRSSTGAVTTSNYANWVQEKPDHLFTGLIGGTNNQAPGVPARFSGSLIGDKAALTISGAQTEDEAIYFCALWFSNHWVFGGGTKLTVLG
1.92	~0.05	1.34	1.98	no binding (tested: 100 nM)	0.21	~0.1	1.91	0.26	no binding (tested: 100 nM)	0.5			F2.127.11 (antibody, human IgG1, lambda, V domains shown, Human-murine chimeric IgG1, lambda) VH: QVTLKESGPGILQPSQTLSLTCSFSGFSLSTFGMGVGWIRQPSGKGLEWLAHIWWDDDKHYNPALKSRLTISKDTSRNQVFLKIANVDTADGATYFCARDNWVSSLDYWGQGTSVIVSS VL: QPVITQSSSASFSLGASAELTCTLSSQHSTYTIEWYQQQPLKPPKYVMGLKKDGSHSTGDGIPDRFSGSSSGADRYLSISNIQPEDEAIYICGVSDTIKEQFVYVFGGGTKVTVLG
2.71	~0.05	1.79	2.57	no binding (tested: 100 nM)	0.06		2.52	0.1		0.46	no binding (tested: 100 nM)	~0.1	F1.192.1 (antibody, human IgG1, kappa, V domains shown, Human-murine chimeric IgG1, kappa) VH: AVQLQQSGVELVRPGASVKLSCTGSDFNIKEDYIHWVKQRPEQGLEWIGWIDPENGDTEYASKFQGKATITADTSSNTAYLQLSSLTSEDTAVYYCATYGSLDYWGQGTTLTVSS VL: DIKMTQSPSSMYAFLGERVTITCKASQGINSFLTWFQQKPGKSPKTLIYRANRLVDGVPSRFSGSGSGQDYSLTISSLEYEDVGIYYCLQYDEFPRTFGGGTKLEIKR

From US20240084003A1 (SIMCERE ZAIMING PHARMACEUTICAL, published 2024)
